Assay results: patent US20220288168A1 (Eli Lilly, published 2022)
Numbered stars: 1 amine (or outer) side, 2 acyl side, 3 side chain; on linkers, the order of the positions; unused ones are H or OH. Bridge positions count the residues as written; N and C are the ends. Square brackets hold non-standard residues; d marks the D form. Side chains are listed from the residue outwards. Ends that are not written are not given here. * marks the point of attachment. C20 diacid = O=C(O)CCCCCCCCCCCCCCCCCCC(=O)*; γGlu = O=C(O)[C@H](CCC(=O)[*:2])N[*:1]; αMeF = C[C@](N)(Cc1ccccc1)C(=O)O; NMeD = CN[C@@H](CC(=O)O)C(=O)O; NMeN = CN[C@@H](CC(N)=O)C(=O)O; αMeL = CC(C)C[C@](C)(N)C(=O)O; Orn = NCCC[C@H](N)C(=O)O; AEEA = NCCOCCOCC(=O)O; CH2 = C([*:1])[*:2]

T1: human calcitonin receptor (hCTR) (human, UniProt P30988 25-474)
T1 construct: whole, on cells; also called human CT receptor
T1 sequence (looked up): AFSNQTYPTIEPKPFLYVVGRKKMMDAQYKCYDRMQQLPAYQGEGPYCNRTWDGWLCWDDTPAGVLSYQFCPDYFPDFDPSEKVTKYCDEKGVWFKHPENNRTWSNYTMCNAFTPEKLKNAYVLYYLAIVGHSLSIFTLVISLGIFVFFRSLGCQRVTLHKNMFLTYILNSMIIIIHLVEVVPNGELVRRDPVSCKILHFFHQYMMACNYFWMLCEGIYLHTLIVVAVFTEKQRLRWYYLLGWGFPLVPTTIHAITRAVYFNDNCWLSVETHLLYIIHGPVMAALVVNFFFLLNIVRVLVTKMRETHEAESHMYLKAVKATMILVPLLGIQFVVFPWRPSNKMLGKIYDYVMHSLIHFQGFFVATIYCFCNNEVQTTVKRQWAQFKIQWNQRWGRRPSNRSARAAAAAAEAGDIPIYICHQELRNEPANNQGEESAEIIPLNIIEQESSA


biological target: T2, human amylin receptor 1 (hAMY1R): human calcitonin receptor co-expressed with human RAMP1 in UMUC3 cells (human, UniProt P30988 25-474; O60894 27-148); experiment: competitive radioligand binding filter assay, hAMY1R membranes, displacement of 125I-rAMY
T2 construct: whole, on cells; also called AMY1 receptor; hAMYIR
Procedure: The equilibrium dissociation constants (Kd) for the various receptor/radioligand interactions are determined from saturation binding analysis using the same reagents and buffers as described below for compound testing.
Binding reactions are carried out in 0.1 mL total reaction volume in a polystyrene 96 deep-well assay block. […] The binding reaction is initiated by the addition of 0.05 mL of 200 μg/mL hAMY1R diluted in assay buffer to the radioactivity. Assay blocks are gently vortexed, sealed with parafilm, and incubated at RT for approximately 20 hours.

T2 sequence (O60894 27-148, chain 2 of 2, one chain of several): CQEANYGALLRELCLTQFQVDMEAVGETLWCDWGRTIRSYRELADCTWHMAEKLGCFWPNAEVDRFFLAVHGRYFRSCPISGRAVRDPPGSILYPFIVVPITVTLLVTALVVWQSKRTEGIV

Row | Binder | Ki [nM]
1 | [γGlu]CNTATCATG[Orn]LAE[αMeF]LVRSSN[NMeD]FGPK([γGlu-γGlu-C20 diacid])LPPTEVGSNTY-NH2 (bridge 2-7 via CH2, Acylated form of Compound III) [Compound IV] | 0.0296
2 | [γGlu]CNTATCATG[Orn]LAE[αMeF]LVRSSN[NMeN]FGPK([γGlu-γGlu-C20 diacid])LPPTEVGSNTY-NH2 (bridge 2-7 via CH2, Acylated form of Compound I) [Compound II] | 0.017
3 | K([γGlu-γGlu-C20 diacid])CETATCATG[Orn]LAE[αMeF]LVRSSN[NMeD]FGPILPPTEVGSNTY-NH2 (bridge 2-7 via CH2, Acylated form of Compound V) [Compound VI] | 0.0445
4 | K([γGlu-γGlu-C20 diacid])CETATCATG[Orn][αMeL]AEFLVRSSHNFGPILPPTEVGSNTY-NH2 (bridge 2-7 via CH2, Acylated form of Compound VII) [Compound VIII] | 0.0435

biological target: T1, human calcitonin receptor (hCTR); experiment: competitive radioligand binding filter assay, hCTR membranes, displacement of 125I-hCT

Row | Binder | Ki [nM]
5 | [γGlu]CNTATCATG[Orn]LAE[αMeF]LVRSSN[NMeD]FGPK([γGlu-γGlu-C20 diacid])LPPTEVGSNTY-NH2 (bridge 2-7 via CH2, Acylated form of Compound III) [Compound IV] | 665
6 | [γGlu]CNTATCATG[Orn]LAE[αMeF]LVRSSN[NMeN]FGPK([γGlu-γGlu-C20 diacid])LPPTEVGSNTY-NH2 (bridge 2-7 via CH2, Acylated form of Compound I) [Compound II] | 202
7 | K([γGlu-γGlu-C20 diacid])CETATCATG[Orn]LAE[αMeF]LVRSSN[NMeD]FGPILPPTEVGSNTY-NH2 (bridge 2-7 via CH2, Acylated form of Compound V) [Compound VI] | 235
8 | K([γGlu-γGlu-C20 diacid])CETATCATG[Orn][αMeL]AEFLVRSSHNFGPILPPTEVGSNTY-NH2 (bridge 2-7 via CH2, Acylated form of Compound VII) [Compound VIII] | 927

biological target: T2, human amylin receptor 1 (hAMY1R): human …; experiment: cell-based or functional assay

Row | Binder | hAMYIR cAMP EC50 [nM]
9 | [γGlu]CGTATCATG[Orn]LAEFLVRSSNNFGPK([γGlu-γGlu-C20 diacid])LPPTEVGSNTY-NH2 (bridge 2-7 via CH2) [Compound XIII] | 0.078
10 | [γGlu]CNTATCATG[Orn]LAE[αMeF]LVRSSN[NMeN]FGPKLPPTEVGSNTY-NH2 (bridge 2-7 via CH2) [Compound I] | 0.133
11 | KCETATCATG[Orn]LAE[αMeF]LVRSSN[NMeD]FGPILPPTEVGSNTY-NH2 (bridge 2-7 via CH2) [Compound V] | 0.139
12 | [γGlu]CNTATCATGKLAEFLVRSSNNFGPK([γGlu-AEEA-AEEA-C20 diacid])LPPTEVGSNTY-NH2 (bridge 2-7 via CH2) [Compound X] | 0.08
13 | KCETATCATG[Orn][αMeL]AEFLVRSSHNFGPILPPTEVGSNTY-NH2 (bridge 2-7 via CH2) [Compound VII] | 0.173
14 | [γGlu]CNTATCATGKLAEFLVRSSNNFGPK([γGlu-γGlu-AEEA-C20 diacid])LPPTEVGSNTY-NH2 (bridge 2-7 via CH2) [Compound XI] | 0.038
15 | [γGlu]CNTATCATGKLAEFLVRSSNNFGPK([AEEA-AEEA-γGlu-C20 diacid])LPPTEVGSNTY-NH2 (bridge 2-7 via CH2) [Compound IX] | 0.132
16 | [γGlu]CNTATCATG[Orn]LAE[αMeF]LVRSSN[NMeD]FGPKLPPTEVGSNTY-NH2 (bridge 2-7 via CH2) [Compound III] | 0.156
17 | [γGlu]CNTATCATG[Orn]LAE[αMeF]LVRSSN[NMeD]FGPK([γGlu-γGlu-C20 diacid])LPPTEVGSNTY-NH2 (bridge 2-7 via CH2, Acylated form of Compound III) [Compound IV] | 0.107
18 | [γGlu]CNTATCATQ[Orn]LAEFLVRSSNNFGPK([AEEA-AEEA-γGlu-C20 diacid])LPPTEVGSNTY-NH2 (bridge 2-7 via CH2) [Compound XII] | 0.113
19 | [γGlu]CNTATCATG[Orn]LAE[αMeF]LVRSSN[NMeN]FGPK([γGlu-γGlu-C20 diacid])LPPTEVGSNTY-NH2 (bridge 2-7 via CH2, Acylated form of Compound I) [Compound II] | 0.075
20 | K([γGlu-γGlu-C20 diacid])CETATCATG[Orn]LAE[αMeF]LVRSSN[NMeD]FGPILPPTEVGSNTY-NH2 (bridge 2-7 via CH2, Acylated form of Compound V) [Compound VI] | 0.107
21 | K([γGlu-γGlu-C20 diacid])CETATCATG[Orn][αMeL]AEFLVRSSHNFGPILPPTEVGSNTY-NH2 (bridge 2-7 via CH2, Acylated form of Compound VII) [Compound VIII] | 0.107

biological target: T1, human calcitonin receptor (hCTR); experiment: cell-based or functional assay

Row | Binder | hCTR cAMP EC50 [nM]
22 | [γGlu]CGTATCATG[Orn]LAEFLVRSSNNFGPK([γGlu-γGlu-C20 diacid])LPPTEVGSNTY-NH2 (bridge 2-7 via CH2) [Compound XIII] | 9.49
23 | [γGlu]CNTATCATG[Orn]LAE[αMeF]LVRSSN[NMeN]FGPKLPPTEVGSNTY-NH2 (bridge 2-7 via CH2) [Compound I] | 18
24 | KCETATCATG[Orn]LAE[αMeF]LVRSSN[NMeD]FGPILPPTEVGSNTY-NH2 (bridge 2-7 via CH2) [Compound V] | 17
25 | [γGlu]CNTATCATGKLAEFLVRSSNNFGPK([γGlu-AEEA-AEEA-C20 diacid])LPPTEVGSNTY-NH2 (bridge 2-7 via CH2) [Compound X] | 14
26 | KCETATCATG[Orn][αMeL]AEFLVRSSHNFGPILPPTEVGSNTY-NH2 (bridge 2-7 via CH2) [Compound VII] | 11.9
27 | [γGlu]CNTATCATGKLAEFLVRSSNNFGPK([γGlu-γGlu-AEEA-C20 diacid])LPPTEVGSNTY-NH2 (bridge 2-7 via CH2) [Compound XI] | 10.5
28 | [γGlu]CNTATCATGKLAEFLVRSSNNFGPK([AEEA-AEEA-γGlu-C20 diacid])LPPTEVGSNTY-NH2 (bridge 2-7 via CH2) [Compound IX] | 18.9
29 | [γGlu]CNTATCATG[Orn]LAE[αMeF]LVRSSN[NMeD]FGPKLPPTEVGSNTY-NH2 (bridge 2-7 via CH2) [Compound III] | 16.3
30 | [γGlu]CNTATCATG[Orn]LAE[αMeF]LVRSSN[NMeD]FGPK([γGlu-γGlu-C20 diacid])LPPTEVGSNTY-NH2 (bridge 2-7 via CH2, Acylated form of Compound III) [Compound IV] | 6.14
31 | [γGlu]CNTATCATQ[Orn]LAEFLVRSSNNFGPK([AEEA-AEEA-γGlu-C20 diacid])LPPTEVGSNTY-NH2 (bridge 2-7 via CH2) [Compound XII] | 25.9
32 | [γGlu]CNTATCATG[Orn]LAE[αMeF]LVRSSN[NMeN]FGPK([γGlu-γGlu-C20 diacid])LPPTEVGSNTY-NH2 (bridge 2-7 via CH2, Acylated form of Compound I) [Compound II] | 2.34
33 | K([γGlu-γGlu-C20 diacid])CETATCATG[Orn]LAE[αMeF]LVRSSN[NMeD]FGPILPPTEVGSNTY-NH2 (bridge 2-7 via CH2, Acylated form of Compound V) [Compound VI] | 13.2
34 | K([γGlu-γGlu-C20 diacid])CETATCATG[Orn][αMeL]AEFLVRSSHNFGPILPPTEVGSNTY-NH2 (bridge 2-7 via CH2, Acylated form of Compound VII) [Compound VIII] | 9.69
